We go through one molecule from publication PMC9813255, “PQBP5/NOL10 maintains and anchors the nucleolus under physiological and osmotic stress conditions” (Nature Communications, 2023).

The target of this assay is T1, human nucleolin (His-tag fusion protein) (human, UniProt P19338 1-710).
T1 construct: nucleolin, human, amplified from HEK293 cDNA into pET-28a; the printed primers run from the start codon to the stop codon; this is read from the printed primers; source: E. coli Rosetta 2(DE3), purified (Ni-NTA agarose)
T1 sequence (P19338 whole entry, the tested form may be a part): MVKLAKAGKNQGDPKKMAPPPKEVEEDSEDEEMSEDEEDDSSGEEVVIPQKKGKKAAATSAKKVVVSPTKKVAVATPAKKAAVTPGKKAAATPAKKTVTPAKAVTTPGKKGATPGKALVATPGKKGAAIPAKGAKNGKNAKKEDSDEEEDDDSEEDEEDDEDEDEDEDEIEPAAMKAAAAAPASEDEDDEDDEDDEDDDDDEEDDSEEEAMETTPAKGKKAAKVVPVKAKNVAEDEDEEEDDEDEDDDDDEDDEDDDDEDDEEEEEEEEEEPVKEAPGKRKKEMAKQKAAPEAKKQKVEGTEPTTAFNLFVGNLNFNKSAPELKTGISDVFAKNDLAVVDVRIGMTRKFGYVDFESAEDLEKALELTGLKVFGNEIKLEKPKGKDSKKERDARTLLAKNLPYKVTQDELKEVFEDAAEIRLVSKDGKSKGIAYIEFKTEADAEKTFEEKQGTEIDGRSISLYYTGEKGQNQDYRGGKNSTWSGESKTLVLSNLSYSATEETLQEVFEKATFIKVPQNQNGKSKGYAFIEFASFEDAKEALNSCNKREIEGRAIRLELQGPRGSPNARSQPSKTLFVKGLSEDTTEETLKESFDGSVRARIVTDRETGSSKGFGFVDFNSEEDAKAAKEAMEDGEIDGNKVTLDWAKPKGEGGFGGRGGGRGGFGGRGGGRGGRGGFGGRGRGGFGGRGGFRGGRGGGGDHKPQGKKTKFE
The assay is described as follows: SPR; Biacore T100, 25 °C; one protein immobilised on a CM5 chip (200 RU), analytes at 0-50 nM, 180 s at 10 μl/min; 25 mM Tris-HCl, 500 mM NaCl, 10% glycerol, 1% Triton X-100, pH 8.0. The note with it: both partners purified. (In general: Surface plasmon resonance follows binding to a sensor surface in real time, without labels.)

B1: human fibrillarin (His-tag fusion protein) (natural protein, UniProt P22087 1-321, looked up)
chain: MKPGFSPRGGGFGGRGGFGDRGGRGGRGGFGGGRGRGGGFRGRGRGGGGGGGGGGGGGRGGGGFHSGGNRGRGRGGKRGNQSGKNVMVEPHRHEGVFICRGKEDALVTKNLVPGESVYGEKRVSISEGDDKIEYRAWNPFRSKLAAAILGGVDQIHIKPGAKVLYLGAASGTTVSHVSDIVGPDGLVYAVEFSHRSGRDLINLAKKRTNIIPVIEDARHPHKYRMLIAMVDVIFADVAQPDQTRIVALNAHTFLRNGGHFVISIKANCIDSTASAEAVFASEVKKMQQENMKPQEQLTLEPYERDHAVVVGVYRPPPKVKN
notes: fibrillarin, human, amplified from HEK293 cDNA into pET-28a; the printed primers run from the start codon to the stop codon; this is read from the printed primers; source: E. coli Rosetta 2(DE3), purified (Ni-NTA agarose)
With B1, the binding result is “binds”.
